From US20180360950A1 (published 2018)

T1: recombinant full-length DARC325 protein (UniProt Q16570 1-325)
T1 chain: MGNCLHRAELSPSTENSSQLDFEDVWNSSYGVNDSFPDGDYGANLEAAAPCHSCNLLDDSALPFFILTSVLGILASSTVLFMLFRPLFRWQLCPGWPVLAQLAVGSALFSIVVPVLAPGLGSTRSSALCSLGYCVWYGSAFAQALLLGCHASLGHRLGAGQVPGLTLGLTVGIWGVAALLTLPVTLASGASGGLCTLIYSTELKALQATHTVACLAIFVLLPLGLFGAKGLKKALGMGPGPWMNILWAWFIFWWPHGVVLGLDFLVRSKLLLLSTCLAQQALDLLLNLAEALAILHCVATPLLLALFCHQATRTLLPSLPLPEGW

B1: VAR2CSAVHH (VHH)
VHH: QVQLQESGGGLVQAGGSLRLSCAFSGSIFKMGWFRQAPGKEREFVAAIRWSGGSTYYADSVKGRFTISRDNAKNTVYLQMDSLKPEDTAVYYCAATWDLAGWNTVDEYDYWGQGTQVTVSS
B2: DARCVHH (VHH)
VHH: QVQLQESGGGSVQAGGSLRLSCAASGYAFSSYCMAWFRQVPGKEREGVASINSDGERRGYADSVKGRFTVSRDNAKNTVYLQMNSLKPEDTAIYYCAAKRVVGGRYCGGGVSSWGQGTQVTVSS
B3: DARCVHH-EBV P18F4 (VHH)
VHH: B2 VHH

How the values were obtained:
[1] = molecular target: recombinant full-length VAR2CSA (3D7-DBL1X-6ε) (Plasmodium falciparum (3D7)); assay: SPR
[2] = molecular target: T1, recombinant full-length DARC325 protein; assay: SPR

| Binder | Kd [1] | Kd [2] |
| --- | --- | --- |
| B1 | 0.486 nM | – |
| B2 | – | 0.09 nM |
| B3 | – | 0.0565 nM |
